Measurements from patent US20140314711A1.

T1: human IL-22 receptor complex IL22R1 and IL10R2 (human) (UniProt Q8N6P7)
T1 sequence (looked up) 1: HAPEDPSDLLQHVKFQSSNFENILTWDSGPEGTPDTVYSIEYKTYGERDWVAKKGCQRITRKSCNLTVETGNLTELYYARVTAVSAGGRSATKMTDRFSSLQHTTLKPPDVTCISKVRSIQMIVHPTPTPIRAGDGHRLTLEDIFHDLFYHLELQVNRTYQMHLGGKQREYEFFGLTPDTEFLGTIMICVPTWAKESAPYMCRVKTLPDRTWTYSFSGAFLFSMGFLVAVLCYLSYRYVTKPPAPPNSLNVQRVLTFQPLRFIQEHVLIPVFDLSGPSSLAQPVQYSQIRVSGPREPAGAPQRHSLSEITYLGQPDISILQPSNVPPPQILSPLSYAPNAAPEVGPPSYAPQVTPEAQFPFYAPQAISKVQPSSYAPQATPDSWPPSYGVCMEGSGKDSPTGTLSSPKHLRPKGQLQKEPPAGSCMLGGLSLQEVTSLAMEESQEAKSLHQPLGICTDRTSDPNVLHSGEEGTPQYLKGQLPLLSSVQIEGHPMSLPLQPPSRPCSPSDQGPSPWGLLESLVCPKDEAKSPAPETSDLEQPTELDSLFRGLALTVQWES
T1 sequence (looked up) 2: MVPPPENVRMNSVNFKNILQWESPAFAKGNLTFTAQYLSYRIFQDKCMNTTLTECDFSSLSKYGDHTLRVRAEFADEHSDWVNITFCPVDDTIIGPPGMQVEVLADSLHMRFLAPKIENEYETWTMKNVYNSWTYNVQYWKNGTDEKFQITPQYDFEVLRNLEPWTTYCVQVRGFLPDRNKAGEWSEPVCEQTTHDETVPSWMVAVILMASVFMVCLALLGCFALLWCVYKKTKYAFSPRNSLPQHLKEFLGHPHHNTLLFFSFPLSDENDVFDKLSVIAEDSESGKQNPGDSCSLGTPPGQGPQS


Target: T1, human IL-22 receptor complex IL22R1 and IL10R2 (human)
Experiment: cell-based or functional assay

| Binder | EC50 (STAT3 luciferase reporter assay) |
| --- | --- |
| IL-22 Fc construct 13 (huIgG1, linker …) (Fc fusion, not shown: a dimerising Fc or GST) APISSHCRLDKSNFQQPYITNRTFMLAKEASLADNNTDVRLIGEKLFHGVSMSERCYLMKQVLNFTLEEVLFPQSDRFQPYMQEVVPFLARLSNRLSTCHIEGDDLHIQRNVQKLKDTVKKLGESGEIKAIGELDLLFMSLRNACIKVDKKVEPKSSDKTHTCPPCP | 0.025 nM |
| IL-22 Fc construct 12 (huIgG1, linker …) (Fc fusion, not shown: a dimerising Fc or GST) APISSHCRLDKSNFQQPYITNRTFMLAKEASLADNNTDVRLIGEKLFHGVSMSERCYLMKQVLNFTLEEVLFPQSDRFQPYMQEVVPFLARLSNRLSTCHIEGDDLHIQRNVQKLKDTVKKLGESGEIKAIGELDLLFMSLRNACIDKKVEPKSSDKTHTCPPCP | 0.025 nM |

Further lines, results first:

| EC50 (STAT3 luciferase reporter assay) | Binder |
| --- | --- |
| 0.016 nM | IL-22 Fc construct 24 (huIgG1, linker …, produced in E. coli) (Fc fusion, not shown: a dimerising Fc or GST) APISSHCRLDKSNFQQPYITNRTFMLAKEASLADNNTDVRLIGEKLFHGVSMSERCYLMKQVLNFTLEEVLFPQSDRFQPYMQEVVPFLARLSNRLSTCHIEGDDLHIQRNVQKLKDTVKKLGESGEIKAIGELDLLFMSLRNACIEPKSSDKTHTCPPCP |
| 0.02 nM | IL-22 Fc construct 18 (huIgG1, linker …, N297G) (Fc fusion, not shown: a dimerising Fc or GST) APISSHCRLDKSNFQQPYITNRTFMLAKEASLADNNTDVRLIGEKLFHGVSMSERCYLMKQVLNFTLEEVLFPQSDRFQPYMQEVVPFLARLSNRLSTCHIEGDDLHIQRNVQKLKDTVKKLGESGEIKAIGELDLLFMSLRNACIKKVEPKSSDKTHTCPPCP |
